The data set addresses HIV-1 RT (HIV-1, UniProt P03366;P03366 600-1159;600-1039). The experiment in a line: off-rate (dissociation with trap); dissociates much more slowly than from dsDNA N1. The settings on record: protein: recombinant; copies: 1;1; label: 5'-32P on the 33 nt DNA primer; 33 nt DNA primer on 50 nt RNA template; template 5' overhang 15 nt, 3' overhang 2 nt.

B1: D33-R50 RNA/DNA hybrid primer-template (DNA:RNA)
DNA: TCCCCGGGTACCGAGCTCGAATTCGCCCTATAG
RNA: UUGUAAUACGACUCACUAUAGGGCGAAUUCGAGCUCGGUACCCGGGGAUC
On to B1, for which the binding result is given as “binds”.

These data come from article PMC8402755.
